From the supplement of paper PMC10126150
± gives the standard deviation of the averaged measurements.

Tested on: ATP
Assay: switch fluorescence ratio, 500 uM ATP over buffer (Cy3 cluster intensity, sum of 5 cycles each) (fold (ratio)); higher = stronger signal-on switching upon ATP binding; sequences stand for … in TCGTCGGCAGCGTCAGATGTGTATAAGAGACAGTTTTTTTTTTTTTTTTTTTTTTTTT…TC
Conditions: aptamer strand: ATP DNA aptamer (quencher-CACCTGGGGGAGTATTGCGGAGGAAGG + anchor), 100 nM annealed; ATP concentration: 500 uM
Procedure, shortened: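 After annealing to 100 nM quencher-labelled ATP aptamer, Cy3-labelled switching-strand clusters on a modified Illumina MiSeq flow-cell were imaged in selection buffer. A second image followed after 15 min with 500 uM ATP at 22 °C, and five such buffer/ATP cycles were done, each separated by NaOH stripping and re-annealing. The fluorescence ratio, averaged per switch-domain sequence, is summed target-cycle over summed buffer-cycle Cy3 intensity per cluster, with clusters outside 100-1000 RFU excluded.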
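Also: ATP exposure 15 min at 22 °C before imaging.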

Sequence | switch fluorescence ratio
GGCCGTAATG | 1.09 ± 0.019
GGCCGTATGT | 1.01 ± 0.011
GGCCGTCGGA | 1.06 ± 0.091
GGCCGTGAGT | 0.996 ± 0.018
GGCCTACCAT | 0.9979 ± 0.0091
GGCCTAGAGG | 1.01 ± 0.021
GGCCTATTGG | 0.998 ± 0.023
GGCCTGAGGG | 0.9854 ± 0.0032
GGCCTGCTCG | 0.988 ± 0.029
GGCCTGTTTT | 1.09 ± 0.21
GGCCTTAAGT | 0.9912 ± 0.0025
GGCGAAAAGG | 0.993 ± 0.047
GGCGAAAATA | 1.007 ± 0.0079
GGCGACACGT | 1.03 ± 0.023
GGCGACGGAG | 0.97 ± 0.0076
GGCGATTGGG | 0.99 ± 0.026
GGCGCAGTTC | 1.37 ± 0.077
GGCGCGCGGG | 0.991 ± 0.00073
GGCGCGCGGT | 0.98 ± 0.0095
GGCGCGGCGG | 1.02 ± 0.068
GGCGCGTCCA | 0.994 ± 0.013
GGCGCTCAGT | 1.02 ± 0.02
GGCGCTTCGG | 0.967 ± 0.05

Sequence | switch fluorescence ratio
GGCGGAACGT | 1 ± 0.023
GGCGGACGGA | 1.07 ± 0.089
GGCGGGACCG | 0.959 ± 0.03
GGCGGGATAT | 1.01 ± 0.032
GGCGGGATGC | 1 ± 0.031
GGCGGGGGGG | 1.03 ± 0.048
GGCGGGGGGT | 1.01 ± 0.024
GGCGGGTGGG | 1.03 ± 0.089
GGCGGTAAAG | 0.992 ± 0.037
GGCGGTAGAG | 1.012 ± 0.0091
GGCGGTTTGG | 1.002 ± 0.0058
GGCGTATATC | 1.02 ± 0.023
GGCGTATGTG | 0.95983 ± 0.00095
GGCGTCAGGG | 1 ± 0.051
GGCGTCTATC | 1.01 ± 0.0096
GGCGTTCATG | 0.9968 ± 0.0081
GGCTACAGCG | 0.987 ± 0.0032
GGCTAGCCTA | 1.01 ± 0.013
GGCTAGGGGT | 1.57 ± 0.022
GGCTAGTACT | 1.01 ± 0.011
GGCTATCGGG | 1.02 ± 0.046
GGCTATTTAA | 1.002 ± 0.0063
GGCTCAATGG | 1.04 ± 0.031

Sequence | switch fluorescence ratio
GGCTCACTAG | 1.01 ± 0.05
GGCTCAGTTT | 0.979 ± 0.026
GGCTCATTGA | 0.984 ± 0.029
GGCTCTGAGG | 0.972 ± 0.02
GGCTGAGGGA | 1.04 ± 0.037
GGCTGAGGGT | 1 ± 0.016
GGCTGGGCTT | 0.99 ± 0.04
GGCTGGGGGG | 0.997 ± 0.02
GGCTGGGGTG | 1.04 ± 0.071
GGCTGTAGAC | 1.006 ± 0.0059
GGCTTAATAG | 1.01 ± 0.033
GGCTTAGTTT | 1.01 ± 0.0055
GGCTTATTTT | 1.0031 ± 6.6e-05
GGCTTCTTGA | 0.966 ± 0.017
GGCTTGAACT | 1.05 ± 0.083
GGCTTGCCTC | 1.023 ± 0.0069
GGGAAAGAAT | 0.978 ± 0.011
GGGAAAGGAT | 1.02 ± 0.033
GGGAAAGTTT | 0.996 ± 0.023
GGGAAATATG | 1.01 ± 0.012
GGGAAATGGT | 1.01 ± 0.027
GGGAAATTCG | 1.012 ± 0.0039
GGGAAATTGG | 1 ± 0.031

Sequence | switch fluorescence ratio
GGGAACAGGG | 1.003 ± 0.0024
GGGAACCGGG | 1.2 ± 0.33
GGGAACGGTA | 0.9955 ± 0.0076
GGGAACTGGG | 1.04 ± 0.049
GGGAAGAATA | 0.986 ± 0.018
GGGAAGAGGG | 1 ± 0.016
GGGAAGAGTA | 1 ± 0.031
GGGAAGATTC | 1.01 ± 0.04
GGGAAGATTG | 0.966 ± 0.052
GGGAAGCCTT | 1.028 ± 0.0069
GGGAAGGAGT | 0.992 ± 0.043
GGGAAGGCAT | 0.986 ± 0.047
GGGAAGGCGT | 1.12 ± 0.14
GGGAAGGGAT | 0.981 ± 0.031
GGGAAGGGCA | 1.01 ± 0.049
GGGAAGGTAG | 0.995 ± 0.058
GGGAAGGTGG | 1.04 ± 0.02
GGGAAGTCCG | 0.974 ± 0.03
GGGAATACTT | 1 ± 0.038
GGGAATCTTC | 1.01 ± 0.034
GGGACAATAT | 1.02 ± 0.044
GGGACAGACC | 1.09 ± 0.024
GGGACATAGT | 0.9616 ± 0.0037

Sequence | switch fluorescence ratio
GGGACATTGT | 0.963 ± 0.03
GGGACCAGGG | 0.989 ± 0.027
GGGACCATAT | 1.03 ± 0.015
GGGACCGTAT | 1 ± 0.023
GGGACCTTTG | 0.994 ± 0.01
GGGACGAATC | 1.006 ± 0.0041
GGGACGATGG | 0.9857 ± 0.0013
GGGACGCAGG | 1.015 ± 0.008
GGGACGGGGG | 1.06 ± 0.16
GGGACGGGGT | 0.963 ± 0.063
GGGACGGGTT | 0.974 ± 0.029
GGGACGTGTT | 1.02 ± 0.028
GGGACTTATG | 1 ± 0.013
GGGACTTCAA | 1 ± 0.039
GGGACTTGGG | 0.998 ± 0.037
GGGAGAATGC | 0.939 ± 0.097
GGGAGACAGA | 0.957 ± 0.074
GGGAGACTCG | 0.96678 ± 0.00026
GGGAGCAAAG | 1.04 ± 0.026
GGGAGCCCCA | 1.04 ± 0.039
GGGAGCGCCG | 1.03 ± 0.039
GGGAGCTGCG | 1 ± 0.018
GGGAGCTGTT | 1.06 ± 0.11

Sequence | switch fluorescence ratio
GGGAGCTTTT | 0.999 ± 0.023
GGGAGGAGGG | 0.976 ± 0.035
GGGAGGCCGG | 1 ± 0.036
GGGAGGCGAG | 1.016 ± 0.0011
GGGAGGGGGA | 1.01 ± 0.035
GGGAGGGGGT | 1 ± 0.035
GGGAGGGGTA | 1 ± 0.029
GGGAGGGTTA | 0.996 ± 0.055
GGGAGGGTTC | 1.01 ± 0.083
GGGAGTAGCA | 1.02 ± 0.026
GGGAGTATGG | 0.977 ± 0.027
GGGAGTGGTG | 1.12 ± 0.17
GGGAGTGTCA | 0.981 ± 0.0045
GGGAGTGTGT | 0.986 ± 0.039
GGGAGTGTTT | 1 ± 0.026
GGGAGTTAGA | 0.9885 ± 0.0063
GGGAGTTAGG | 0.9609 ± 0.0049
GGGAGTTTAG | 0.994 ± 0.016
GGGATACCCT | 0.9798 ± 0.00069
GGGATAGGGA | 1.01 ± 0.045
GGGATAGTGG | 0.979 ± 0.03
GGGATATCTG | 0.98847 ± 0.00072
GGGATATGTA | 1.01 ± 0.041

Sequence | switch fluorescence ratio
GGGATCCCTT | 1.03 ± 0.05
GGGATCCTTG | 1 ± 0.022
GGGATGACCT | 1.1 ± 0.044
GGGATGCGTG | 0.991 ± 0.043
GGGATGGATC | 0.9929 ± 0.0011
GGGATGGGCA | 1.01 ± 0.055
GGGATTAAAG | 1.02 ± 0.017
GGGATTGATC | 1.02 ± 0.021
GGGATTGGAT | 0.967 ± 0.037
GGGATTGGGA | 0.99 ± 0.045
GGGATTTGGC | 0.995 ± 0.036
GGGCAAAATG | 0.981 ± 0.036
GGGCAAACAG | 0.959 ± 0.029
GGGCAAACGA | 1.12 ± 0.025
GGGCAAATGA | 0.9764 ± 0.0041
GGGCAAGACA | 1.23 ± 0.018
GGGCAAGCTG | 1.04 ± 0.1
GGGCAAGGGT | 0.977 ± 0.029
GGGCAATCTT | 1.119 ± 0.0083
